The text below walks through data of patent US11795460B2, “Compositions and methods for TTR gene editing and treating ATTR amyloidosis” (Intellia Therapeutics, Inc., priority 2017, dated 2023).

The data set has as its system mouse TTR. Kind of data set: Serum mouse TTR ELISA in mice dosed with LNP formulations (Table 28). It is filed as in vivo. The following applies: wild type CD-1 mice; 1, 0.3, 0.1, 0.03, or 0.01 mg/kg; FIG. 15B. Here is the method:
Blood was collected and the serum was isolated as indicated. The total mouse TTR serum levels were determined using a Mouse Prealbumin (Transthyretin) ELISA Kit (Aviva Systems Biology, Cat. OKIA00111); rat TTR serum levels were measured using a rat specific ELISA kit (Aviva Systems Biology catalog number OKIA00159); human TTR serum levels were measured using a human specific ELISA kit (Aviva Systems Biology catalog number OKIA00081); each according to manufacture's protocol. Briefly, sera were serial diluted with kit sample diluent to a final dilution of 10,000-fold, or 5,000-fold when measuring human TTR in mouse sera. […] The absorbance of the contents was measured on the Spectramax M5 plate reader with analysis using SoftmaxPro version 7.0 software. Serum TTR levels were quantitated off the standard curve using 4 parameter logistic fit and expressed as ug/mL of serum or percent knockdown relative control (vehicle treated) animals.
In separate experiments using wild type CD-1 mice, an LNP formulation comprising guide G000502, which is cross homologous between mouse and cyno, was tested in a dose response study. […] Liver editing results were determined using primers designed to amplify the region of interest for NGS analysis. […]
(In general: An ELISA detects its analyte on a solid surface through an enzyme-linked reagent.)

Strand notation (5' to 3'): a small letter for the sugar, then the base; units joined by * are phosphorothioate-linked, units joined directly phosphodiester-linked; [ ] holds rarer units or linkages, { } end groups; capitals alone tell only the bases. m = 2'-O-methyl; r = 2'-OH (RNA)

B1: G000502: TTR Cyno specific sgRNA modified sequence, SEQ ID No. 114; guide sequence of CR000689; cross homologous between mouse and cyno (nucleic acid)
guide: mA*mC*mA*rCrArArArUrArCrCrArGrUrCrCrArGrCrGrGrUrUrUrUrArGrAmGmCmUmAmGmAmAmAmUmAmGmCrArArGrUrUrArArArArUrArArGrGrCrUrArGrUrCrCrGrUrUrArUrCrAmAmCmUmUmGmAmAmAmAmAmGmUmGmGmCmAmCmCmGmAmGmUmCmGmGmUmGmCmU*mU*mU*mU
For B1, the “Serum mouse TTR levels, dose response” value was “A dose response for both editing and serum TTR levels was evident”.
